{"source": "the nanobody polyreactivity screen of Harvey et al. (2022)"}
{"experiment": "yeast display, Sf9 membrane polyspecificity reagent, FACS + sequencing; frameworks hold sequencing errors", "how_it_was_run": "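Genes from sorted yeast were amplified by colony PCR, read by MiSeq 2 × 250 sequencing and filtered on CDR length. These cells carried a synthetic nanobody library in Saccharomyces cerevisiae BJ5465 and were sorted by FACS into low and high (top ~1%) gates on anti-HA and streptavidin fluorescence. Polyreactivity is labelled according to the gate of origin.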"}
{"sequence": "QVQLVESGGGLVQAGGSLRLSCAASGLTFWYYVMGWYRQAPGKERELVAAINIGGSTKYAYSVKGRFTISRDNAKNTVYLQMNSLKPEDTAVYYCAAQYYYTGTRSIRSFDYWGQGTQVTVSS", "polyreactivity (PSR sort gate)": "low polyreactivity"}
{"sequence": "QVQLVESGGGLVQAGGSLRLSCAASGLTFYAYAMGWYRQAPGKERELVAAISWTGGRTYYADSVKGRFTISRDNAKNTVYLQMNSLKPEDTAVYYCAAEVFTTGSFRRYDYWGQGTQVTVSS", "polyreactivity (PSR sort gate)": "high polyreactivity"}
{"sequence": "QVQLVESGGGLVQAGGSLRLSCAASGLTFYGNAMGWYRQAPGKERELVAAISSSGGTTYYADSVKGRFTISRDNAKNTVYLQMNSLKPEDTAVYYCAARPSGGYESTRTRDYWGQGTQVTVSS", "polyreactivity (PSR sort gate)": "low polyreactivity"}
{"sequence": "QVQLVESGGGLVQAGGSLRLSCAASGLTFYGYGMGWYRQAPGKERELVASITSGGNTYYADSVKGRFTISRDNAKNTVYLQMNSLKPEDTAVYYCAVTAIALYYSSGYYWGQGTQVTVSS", "polyreactivity (PSR sort gate)": "low polyreactivity"}
{"sequence": "QVQLVESGGGLVQAGGSLRLSCAASGLTFYHYDMGWYRQAPGKERELVAAINFSAGITYYADSVKGRFTISRDNAKNTVYLQMNSLKPEDTAVYYCAAEPEWWWRGYGYWGQGTQVTVSS", "polyreactivity (PSR sort gate)": "low polyreactivity"}
{"sequence": "QVQLVESGGGLVQAGGSLRLSCAASGLTFYLYAMGWYRQAPGKERELVAAITSAGITYADSVKGRFTISRDNAKNTVYLQMNSLKPEDTAVYYCASSIDCGKCLGRRYDYWGQGSQVTVSS", "polyreactivity (PSR sort gate)": "low polyreactivity"}
{"sequence": "QVQLVESGGGLVQAGGSLRLSCAASGLTFYNNAMGWYRQAPGKERELVARISSGGSTYYADSVKGRFTISRDNAKNTVYLQMNSLKPEDTADYYCAAGRGYWWWYGYDYWGQGTQVTVSS", "polyreactivity (PSR sort gate)": "low polyreactivity"}
{"sequence": "QVQLVESGGGLVQAGGSLRLSCAASGLTFYQNAMGWYRQAPGKERELVAAISSIGGTYYADSVKGRFTISRDNAKNTVYLQMNSLKPEDTAVYYCAKRSRYPYYPYGYWGQGTQVTVSS", "polyreactivity (PSR sort gate)": "high polyreactivity"}
{"sequence": "QVQLVESGGGLVQAGGSLRLSCAASGLTFYQYAMGWYRQAPGKERELVAGITSGGSTKYADSVKGRFTISRDNAKNTVYLQMNSLKPEDTAVYYCAARFYAFRKGYYYWGQGTQVTVSS", "polyreactivity (PSR sort gate)": "high polyreactivity"}
{"sequence": "QVQLVESGGGLVQAGGSLRLSCAASGLTFYQYAMGWYRQATGKETELVAAITSAGITYADSVKGRFTISRDNAKNTVYLQMNSLKPEDTAVYYCAKDDYFSYGYVEFDYWGQGTQVTVSS", "polyreactivity (PSR sort gate)": "low polyreactivity"}
{"sequence": "QVQLVESGGGLVQAGGSLRLSCAASGLTFYRNAMGWYTQAPGKERELVATISSSGGSTYYADSVKGRFTISRDNEKNTVYLQMNSLKPEDTAVYYCNARYYSYGPGKTVRYRTGYYGYWGQGTQVTVSS", "polyreactivity (PSR sort gate)": "high polyreactivity"}
{"sequence": "QVQLVESGGGLVQAGGSLRLSCAASGLTFYRYAMGWYRQARGKERELVAAISRRGGRTYSADSVKGRFTISRDNAKTTVYLQMNSLKPEDTAVYYCAAVTRDYRNDRRRQRYYYWGQGTQETVSS", "polyreactivity (PSR sort gate)": "high polyreactivity"}
{"sequence": "QVQLVESGGGLVQAGGSLRLSCAASGLTFYSYAMGWYRQAPGKERELVADISWSGGSTYYADSVKGRFTISRDNAKNTVYLQMNSLQPEDTAVYYCAAEVFPGYDYWGQGTQVTVSS", "polyreactivity (PSR sort gate)": "low polyreactivity"}
{"sequence": "QVQLVESGGGLVQAGGSLRLSCAASGLTFYTNAKGWYRQAPGKEREFVDAITSSGGRKYYADSVKGRFTISRDNAKNTVYLQMNSLKPEDTAVYYCAADARRPRIPEMYYWGQGTQVTVSS", "polyreactivity (PSR sort gate)": "high polyreactivity"}
{"sequence": "QVQLVESGGGLVQAGGSLRLSCAASGLTFYVYAMGWYRQAPGKEREFVAAISWSGTSTSYADSVKGRFTISRDNAKNTVYLQMNSLKPEDTAVYYCAADVHTPALYTYAAGDYWGQGTQVTVSS", "polyreactivity (PSR sort gate)": "low polyreactivity"}
{"sequence": "QVQLVESGGGLVQAGGSLRLSCAASGLTFYVYTMGWYSQAPGKEWELVAAISSGTTTHYADSVKGRFTISRDNAMNTVYLQMNSLKPEDTAVYYCGADLYHYSRDGYWGQGTQVTVSS", "polyreactivity (PSR sort gate)": "low polyreactivity"}
{"sequence": "QVQLVESGGGLVQAGGSLRLSCAASGLTFYYNAMGSYRQAPGKERELVAAISRSAGSTYYADSVKGRFTISRDNAKNTVYLQMHSLKPEDTAVYYCAVGYVYTRKGRVQPVKYDYWGQGTQVTVSS", "polyreactivity (PSR sort gate)": "high polyreactivity"}
{"sequence": "QVQLVESGGGLVQAGGSLRLSCAASGLTFYYNAMGWYRQAPGKERELVAAISRSGGSTYYADSVKGRFTISRDNAKNTVYLQMNSLKPEDTAVYYCAVGYVYTRKGRVQPVKYDYWGQGTQVTVSS", "polyreactivity (PSR sort gate)": "high polyreactivity"}
{"sequence": "QVQLVESGGGLVQAGGSLRLSCAASGLTFYYYAMGWYRPAPGKERELVARISSGTSTYYADSVKGRFTISRDNAKNTVYLQMNSLKPEDTAVYYCNARRKLGSTHGPWGGLEYWGQGTQVTVSS", "polyreactivity (PSR sort gate)": "low polyreactivity"}
{"sequence": "QVQLVESGGGLVQAGGSLRLSCAASGLTFYYYAMGWYRQAPGKEREIVAAISRSGGTTYYADSVKGRFTISRDTAKNTVYLQMNSLKPEDTAVYYCNAQWWRYWPSQVIFDYWGQGTQVTVSS", "polyreactivity (PSR sort gate)": "high polyreactivity"}
{"sequence": "QVQLVESGGGLVQAGGSLRLSCAASGLTFYYYAMGWYRQAPGKERELVAAISRSGGSTYYADSVKGRFTISRDNAKNTVYLQMNSLKPEDTAVYYCAADYFTLYPYRGYDYWGQGTQVTVSS", "polyreactivity (PSR sort gate)": "low polyreactivity"}
{"sequence": "QVQLVESGGGLVQAGGSLRLSCAASGLTFYYYAMGWYRQAPGKERELVAAMSIGGSTDYADSVKGRFTISRDNAKNTVYLQMNSLKPEDTAVYYCNVDDNSEYDYWGQGTQVTVSS", "polyreactivity (PSR sort gate)": "low polyreactivity"}
{"sequence": "QVQLVESGGGLVQAGGSLRLSCAASGLTFYYYAMGWYRQAPGKQRELVAAINSSGGITFYADSVKGRFTISRDNAKNTFYLQMNSLKPEDTAVYYCASGGRSNRYGYWGQGTQVTVSS", "polyreactivity (PSR sort gate)": "low polyreactivity"}
{"sequence": "QVQLVESGGGLVQAGGSLRLSCAASGLTFYYYVMGWYRQAPGKEREFVAAISRSGGSTYYADSVKGRFTISRDNAKNTVYLQMNSLKPEDTAVYYCASYTHDFGYKYWGQGTQVTVSS", "polyreactivity (PSR sort gate)": "high polyreactivity"}
{"sequence": "QVQLVESGGGLVQAGGSLRLSCAASGLTFYYYVMGWYRQAPGKERELVAAISSSGGNTYYADSVKGRFTISRDNAKNTVYLQMNSLKPEDTAVYYCAAGQKRTLDNYWGQGTQVTVSS", "polyreactivity (PSR sort gate)": "high polyreactivity"}
{"sequence": "QVQLVESGGGLVQAGGSLRLSCAASGLTINPNAMGWYRPAPGKERELVAAIDWSGGSTYCADSVKGRFTISRDNAKNTVYLQMNSLKPEDTAVYYSAADPPDRLFLYDYWGQGTQVTVSS", "polyreactivity (PSR sort gate)": "low polyreactivity"}
{"sequence": "QVQLVESGGGLVQAGGSLRLSCAASGLTIQNNAMGWYRQAPGKERDLVAVITRIGGSTYYADSVKGRFTISRDYEKNTVYLQMNSLKPEDTAVYYCAAGYRTRRRLHVYWGQGTQVTVSS", "polyreactivity (PSR sort gate)": "high polyreactivity"}
{"sequence": "QVQLVESGGGLVQAGGSLRLSCAASGLTITKNVMGWYRQAPGKERELVAVISRSGGSTYYADSVKGRFTISRDNAKNTVYLQMNSLKPEDTAVYYCNVKGPGPSRGNYWGQGTQVTVSS", "polyreactivity (PSR sort gate)": "low polyreactivity"}
{"sequence": "QVQLVESGGGLVQAGGSLRLSCAASGLTITQYVMGWYRQAPGKERDLDAAISWGGTSTYYADSVKGRFTISRDHAKNTVYLQMNSLKPEDTAVYYCNARSVYLSFWGFDYWGQGTQVTVSS", "polyreactivity (PSR sort gate)": "low polyreactivity"}
{"sequence": "QVQLVESGGGLVQAGGSLRLSCAASGLTIWRYAMGWYRQAPGKEREFVATISQNGGRTYYADSVKGRFTISRDNAKNTVYLQMNSLKPEDTAVYYCAADDWRWGYDYWGQGTQVTVSS", "polyreactivity (PSR sort gate)": "high polyreactivity"}
{"sequence": "QVQLVESGGGLVQAGGSLRLSCAASGLTIWYYAMGWSRQAPGKEREFVAAITSRGGDTYYADSVKGRFTISRDNAKNTVYLQMNSLKPEDTAVYYCAVRPRYYGTYRYYYWGQGTQVTVSS", "polyreactivity (PSR sort gate)": "high polyreactivity"}
{"sequence": "QVQLVESGGGLVQAGGSLRLSCAASGLTIYYYAMGWYRQAPGKERELVAAITWRGGSTYYADSVKGRFTISRDNAKNTVYLQMNSLKPEDTAVYYCAADPGPYGYYYWGQGTQVTVSS", "polyreactivity (PSR sort gate)": "low polyreactivity"}
{"sequence": "QVQLVESGGGLVQAGGSLRLSCAASGLTLAPNAMGWYRQAPGKERELVAAITRSGGDTYYADSVKGRFTISRDNAKNTVYLQMNSLKPEDTAVYYCAADYWFRYGTYEYWGQGTQVTVSS", "polyreactivity (PSR sort gate)": "high polyreactivity"}
{"sequence": "QVQLVESGGGLVQAGGSLRLSCAASGLTLDKYAMGWYRQAPGKERELVAGINSRGGSTYADSVKGRFTISRDNAKNTVYLQMNSMKPEDTAVYYCAADGKVQGGYYWGQGTQVTVSS", "polyreactivity (PSR sort gate)": "high polyreactivity"}
{"sequence": "QVQLVESGGGLVQAGGSLRLSCAASGLTLETIAMGGYRQAPGKERELVAGITYSGGTTYYADSVKGRFTISRDNAKNTVYLQMNSLKPEDTAVFYCAAHTRTSGHIYWGQGTQVTVSS", "polyreactivity (PSR sort gate)": "low polyreactivity"}
{"sequence": "QVQLVESGGGLVQAGGSLRLSCAASGLTLGDNPMGWYRQAPGKERELVAAITSGGVNTYYADSVKGRFTISRDNAKNTVYLQMNSLKPEDTAVYYCAVPNRVYSQQYKFSVRYYYWGQGTQVTVSS", "polyreactivity (PSR sort gate)": "low polyreactivity"}
{"sequence": "QVQLVESGGGLVQAGGSLRLSCAASGLTLYRYAMGWYRQAPGKERELVAGISWGGGSTYYADSVKGRFTISRDNAKNTVYLQMNSLKPEDTAVYYCAAGRLLYIPRYYYWGQGTQVTVSS", "polyreactivity (PSR sort gate)": "high polyreactivity"}
{"sequence": "QVQLVESGGGLVQAGGSLRLSCAASGLTLYRYTMGWYRQAPGKERELVAGISRGGSTYYADSVKGRFTISRDNAKNTVYLQMNSLKPEDTAVYYCAAYYGGHYYAYSYDYWGQGTQVTVSS", "polyreactivity (PSR sort gate)": "high polyreactivity"}
{"sequence": "QVQLVESGGGLVQAGGSLRLSCAASGLTLYYNAMGWYRQAPGKERELVAAISGSGGNTYYADSVKGRFTISRDNAKNTVYLQMNSLKPEDTAVYYCAKVVRVSHRYYYWGQGTQVTVSS", "polyreactivity (PSR sort gate)": "high polyreactivity"}
{"sequence": "QVQLVESGGGLVQAGGSLRLSCAASGLTSGYYAMGWYRQAPGKEREFVAAITWRSGSTYYADSVKGRFTISRDNAKNTVYLQMNSLKPEDTAVYYCAAVSVIYHGHNRSTYEYWGQGTQVTVSS", "polyreactivity (PSR sort gate)": "high polyreactivity"}
{"sequence": "QVQLVESGGGLVQAGGSLRLSCAASGLTSNGYTMGWYRQAPGKERELVAAITGRDGSTYADSVKGRFTISRDNAKNTVYLQMNSLKPEHTAVYYCAARLWRYRRYDYWGQGTQVTVSS", "polyreactivity (PSR sort gate)": "high polyreactivity"}
